{"source": "patent US10138280B2", "about": "“Polypeptides targeting glycosylated MUC2 proteins, methods of synthesis, their nucleic acids and uses thereof” (INSTITUT PASTEUR, priority 2011, dated 2018)", "molecules": {"B1": {"name": "Cy5-MUB70: Cy5-labelled MUB70 polypeptide, labelled via Cy5 maleimide on N-terminal cysteine (conjugate)", "peptide": "CVHVQYIDGETDQMLRQDDLDGYTDETIPYSTAEGIKKFEGDGYELFKDNFPAGEKFDNDDTNDQFYTVIF"}}, "biological_target": "T1, human colonic mucus (Muc2) (Homo sapiens, UniProt Q02817)", "T1 construct": "Segments of human colon (ascending, descending and sigmoid colon) were obtained from fully informed patients undergoing surgery; from tissue; host or cells: healthy human colon segments (live explants, mucus collected from them, Carnoy- or formol-fixed sections)", "experiment": "Immunofluorescent staining of human mucus and fixed human colon samples", "details": "human colon mucus from ex vivo samples and fixed purified human mucus", "from_the_text": "FIGS. 4A-4B. Cy5-MUB70 is specifically binding to the glycosylated moiety of Muc2 secreted in the colon mucus layer. (FIG. 4A) Immunodetection of Muc2, Muc5ac, Muc5b and Muc6 (dotblot analysis) on human mucus extracts eluted after a pulldown assay performed with biot-MUB70 on avidin conjugated beads (see Methods). Biotin is used as a negative control. Immunodetection of Muc2 (dotblot analysis) on deglycosylated mucus extracts eluted after a pulldown assay performed with biot-MUB70 on avidin conjugated beads. Non-deglycosylated mucus extract is used as a positive control. (FIG. 4B) Co-localization of Muc2 (green) and Cy5-MUB (blue) observed on fixed (Carnoy) human colon samples. Actin is stained in red (Phall.RRX). Observations are performed using a confocal microscope. Bars is 20 μm.\nFIGS. 9A-9B. (FIG. 9A) Co-localization of Muc2 (green) and Cy5-MUB (blue) performed by immunofluorescent detection on human mucus extract collected on ex vivo tissues using an epifluorescent microscope. Bar is 50 μm. […]\nFor immunofluorescence assay mouse α-MUC2 pAbs (Santa Cruz sc-15334) was diluted 1:1000 and FITC-conjugated rabbit anti-mouse was diluted 1:2000. Host cells were detected with DAPI (nuclei, […]) or using Phalloidin-Rhodamine red X (RRX)-conjugated donkey anti-mouse antibodies (Jackson Immunoresearch Antibodies) as an actin marker (stained red); both were used at a final dilution of 1:1000. […]", "data": [{"molecule": "B1", "values": [{"measurement": "colocalization with Muc2", "value": "colocalization detection of Muc2 and Cy5-MUB70"}]}]}
